This experiment addresses FtsZ (UniProt P0A9A6). Put plainly: PL recruitment assay (SUV co-sedimentation by low-speed centrifugation, SDS-PAGE). Particulars: FtsZ 3 μM, GTP 2 mM, FtsA wild type or mutant 2.5 μM, SUVs 250 μg ml-1, ATP 4 mM; parent: 93.7.
Chain of UniProt P0A9A6 (P0A9A6 whole entry): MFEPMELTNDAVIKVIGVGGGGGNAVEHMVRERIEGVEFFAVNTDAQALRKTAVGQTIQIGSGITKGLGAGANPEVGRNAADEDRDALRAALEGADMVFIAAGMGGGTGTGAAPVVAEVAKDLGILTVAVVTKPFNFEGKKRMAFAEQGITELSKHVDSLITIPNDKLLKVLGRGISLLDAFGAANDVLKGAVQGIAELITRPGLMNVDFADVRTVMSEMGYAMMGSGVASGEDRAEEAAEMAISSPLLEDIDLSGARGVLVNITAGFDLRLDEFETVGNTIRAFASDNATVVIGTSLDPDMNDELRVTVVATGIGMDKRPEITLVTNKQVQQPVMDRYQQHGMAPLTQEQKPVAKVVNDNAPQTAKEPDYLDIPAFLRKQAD
For “FtsA wild type (from UniProt P0ABH0) A188V”, the response was 95.3 % of total.

Consider “FtsA wild type (from UniProt P0ABH0) E14R”, for which the response was 83.8 % of total.

Turning to “FtsA wild type (from UniProt P0ABH0) S84L”, the response is 97.2 % of total.

On to “FtsA wild type (from UniProt P0ABH0) Y375A”, for which the response was 41.1 % of total.

(Values after paper PMC10213515.)
